Patent US12139542B2, “Inhibitors of aortic carboxypeptidase-like protein (ACLP)” (TRUSTEES OF BOSTON UNIVERSITY, priority 2014, dated 2024)

Legend:
TGFβ Receptor II (TβRII) = target: T1, TGFβ Receptor II (TβRII) (Mus musculus, UniProt Q62312); experiment: ACLP binding assay: biotinylated rACLP on streptavidin plate incubated with TβRII Fc
T1 construct: contains the extracellular domain of mouse TβRII fused to the Fc domain of human IgG; purchased R&D
T1 sequence (Q62312 24-166 limits assumed): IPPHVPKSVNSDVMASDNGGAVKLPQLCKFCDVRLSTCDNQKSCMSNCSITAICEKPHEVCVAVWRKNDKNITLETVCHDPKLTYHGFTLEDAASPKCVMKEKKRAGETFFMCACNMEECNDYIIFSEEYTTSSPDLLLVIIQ
Experimental: ACLP binding assays. To determine if ACLP binds to TGFβ Receptor II (TORII), ACLP was biotinylated using an EZ-Link Sulfo-NHS-LC-Biotin kit (Thermo Scientific 21327) according to manufacturer's instructions. Briefly, rACLP (0.267 nM) was incubated with 20 fold molar excess of biotin for 30 min at room temperature. The protein was then dialyzed back into DPBS overnight. Biotinylated ACLP (1 μg/well) was immobilized on a PIERCE™ Streptavidin coated High-Binding Capacity Plate (Thermo-Scientific PI-15500) overnight at 4° C. in binding buffer made up of PBS with Mg^2+, Ca^2+, 0.1% BSA, and 0.05% Tween 20). The next day, the plates were washed with binding buffer, blocked with the same buffer containing 1% BSA at room temperature for 1 h, followed by incubation with increasing amounts of TβRII Fc (0, 10, 100, 1000 ng). Binding was detected with Human-IgG-HRP (GE Healthcare Life Sciences) followed by incubation with 3,3′,5,5′-Tetramethylbenzidine (TMB, eBioscience). The reaction was quenched with 2 M H2SO4 and absorbance at 450 nm was measured on the BioTek Synergy HT system.
ACLP binds to the TGFβ-receptor II. […] The TβRII Fc chimera contains the extracellular domain of mouse TβRII fused to the Fc domain of human IgG and has been used as a global inhibitor of TGFβ (6).

ACLP signaling (pSmad3) = experiment: TGFβ receptor-Fc decoy block of rACLP-induced pSmad3 in IMR90 fibroblasts; type: cell-based; settings: IMR90 human lung fibroblast cells, 90 mins
[1] = test system: ACLP-induced myofibroblast differentiation; experiment: TGFβ receptor-Fc decoy block of ACLP-induced SMA and SM-MHC expression in human lung fibroblasts; type: cell-based; settings: human lung fibroblast cells with rACLP, 48 hours
[2] = test system: IMR90 human lung fibroblast cells; experiment: SMA and collagen I protein expression in IMR90 fibroblasts treated with recombinant ACLP proteins (Western blot); type: cell-based; settings: IMR90, low serum media, 3.75 μg/ml (~30 nM) protein, 48 h, vs control cells
Experimental: Cell Treatments. IMR90 human lung fibroblasts (ATCC) and AD293 cells (Stratagene) were grown in DMEM supplemented with 10% FBS and 1% penicillin/streptomycin and incubated in a 5% CO2 atmosphere at 37° C. Mink lung epithelial cells stably transfected with the plasminogen activator inhibitor 1 (PAI-1) reporter construct driving luciferase expression (MLEC-TGFβ) (2) were grown in DMEM supplemented with 10% FBS and 1% penicillin/streptomycin, maintained in 250 μg/ml G418, and incubated in a 5% CO2 atmosphere at 37° C.
(§1) IMR90 cells and MLEC-TGFβ cells were generally treated for 30 min, 24 h, or 48 h in low serum media containing 0.5% FBS and 1% penicillin/streptomycin and incubated in a 5% CO2 atmosphere at 37° C. Cells were treated with 3.75 μg/ml (approximately 30 nM) rACLP (full length, Tsp, or C-terminal) or 1 nM TGFβ (R&D) (as a positive control), except where indicated. Cells treated for 30 min were serum starved in low serum media overnight preceding treatment.
Recombinant ACLP induces myofibroblast gene and protein expression. To further define the role of ACLP in the fibroblast to myofibroblast differentiation process, IMR90 human lung fibroblast cells were treated with rACLP. […] IMR90 cells were grown in media containing 3.75 μg/ml (30 nM) rACLP or 1 nM TGFβ as a positive control (FIG. 2A). […] These findings indicate that ACLP promotes the fibroblast to myofibroblast differentiation because it stimulates expression of SMA and collagen 1(3).
The N-terminal domain of ACLP promotes myofibroblast marker protein expression. Because the inventors discovered that the N-terminal Tsp motifs of ACLP (e.g. the PFD) is the domain responsible for promoting TGFβ signaling, the inventors next assessed which domain of ACLP is responsible for increased SMA and collagen I expression in lung myofibroblasts. IMR90 lung fibroblasts were treated in low serum media containing equal molar amounts of full-length protein, the pro-fibrotic domain (PFD) of ACLP, and C-terminal ACLP (˜30 nM) for 48 h (FIG. 7).

[3] = test system: Smad3 phosphorylation (canonical TGFβ signaling); experiment: Smad3 phosphorylation in serum starved IMR90 fibroblasts (Western blot); type: cell-based, human; settings: serum starved IMR90, ~30 nM protein, 30 min, low serum media
Experimental: as §1
rACLP stimulates canonical TGFβ signaling (Published Tumelty et al JBC 2014). Because ACLP increases TGFβ signaling in a reporter assay, the role of ACLP in canonical TGFβ signaling was investigated in detail. In pulmonary fibroblasts, TGFβ promotes the phosphorylation of Smad3 which then binds to Smad4 and translocates into the nucleus to promote transcription of myofibroblast marker genes (4,5). Therefore, the effects of ACLP on Smad3 phosphorylation were measured. Serum starved IMR90 cells were treated with rACLP for 15, 30, 45, or 60 min, or 24 h (FIG. 3) (3).
Serum starved IMR90 human lung fibroblasts were treated with equivalent molar amounts (˜30 nM) of purified full-length, Tsp repeat domain, or C-terminal protein for 30 min in low serum media (FIG. 6).

[4] = test system: TGFβ signaling activity (PAI-1 promoter luciferase); experiment: MLEC-TGFβ activity assay (PAI-1 promoter luciferase reporter); type: cell-based, mink; settings: MLEC-TGFβ cells, treated overnight in low serum media
Experimental: Cell Treatments. IMR90 human lung fibroblasts (ATCC) and AD293 cells (Stratagene) were grown in DMEM supplemented with 10% FBS and 1% penicillin/streptomycin and incubated in a 5% CO2 atmosphere at 37° C. Mink lung epithelial cells stably transfected with the plasminogen activator inhibitor 1 (PAI-1) reporter construct driving luciferase expression (MLEC-TGFβ) (2) were grown in DMEM supplemented with 10% FBS and 1% penicillin/streptomycin, maintained in 250 μg/ml G418, and incubated in a 5% CO2 atmosphere at 37° C. IMR90 cells and MLEC-TGFβ cells were generally treated for 30 min, 24 h, or 48 h in low serum media containing 0.5% FBS and 1% penicillin/streptomycin and incubated in a 5% CO2 atmosphere at 37° C. Cells were treated with 3.75 μg/ml (approximately 30 nM) rACLP (full length, Tsp, or C-terminal) or 1 nM TGFβ (R&D) (as a positive control), except where indicated. Cells treated for 30 min were serum starved in low serum media overnight preceding treatment. MLEC-TGFβ activity assay. To measure TGFβ signaling activity, 1×10^4 MLEC-TGFβ cells/well were plated on white 96-well cell culture treated plates and allowed to adhere overnight. […] Luciferase activity was measured on an auto-injecting BioTek Synergy HT plate reader using 50 μl of luciferase assay substrate (Promega).

Molecule | binding to streptavidin wells without ACLP (TGFβ Receptor II (TβRII); control wells without ACLP) | amount that inhibited ACLP binding to TGFβ-RII in vitro (TGFβ Receptor II (TβRII); in vitro) | pSmad3 expression in the presence of mouse rACLP (ACLP signaling (pSmad3)) | ACLP-induced SM-MHC expression [1] | ACLP-induced SMA expression [1] | SMA protein expression [2] | collagen protein expression [2] | Smad3 phosphorylation [3] | amount that stimulated luciferase activity [4]
TβRII Fc: extracellular domain of mouse TβRII fused to the Fc domain of human IgG (R&D); exemplary decoy ACLP inhibitor (protein, left off: a dimerising Fc or GST) IPPHVPKSVNSDVMASDNGGAVKLPQLCKFCDVRLSTCDNQKSCMSNCSITAICEKPHEVCVAVWRKNDKNITLETVCHDPKLTYHGFTLEDAASPKCVMKEKKRAGETFFMCACNMEECNDYIIFSEEYTTSSPDLLLVIIQ | did not bind | at least 100 ng | decreases pSmad3 expression | decreases | decreases | – | – | – | –
Tsp repeat domain: recombinant N-terminal Tsp repeat domain of mouse ACLP, amino acids 26-373, myc-His tagged (protein, left off: small tags and cut ends, recombinant N-terminal Tsp repeat domain of mouse ACLP, amino acids 26-373, myc-His tagged) QTVLTDDEIEEFLEGFLSELETQSPPREDDVEVQPLPEPTQRPRKSKAGGKQRADVEVPPEKNKDKEKKGKKDKGPKATKPLEGSTRPTKKPKEKPPKATKKPKEKPPKATKKPKEKPPKATKKPKEKPPKATKRPSAGKKFSTVAPLETLDRLLPSPSNPSAQELPQKRDTPFPNAWQGQGEETQVEAKQPRPEPEEETEMPTLDYNDQIEKEDYEDFEYIRRQKQPRPTPSRRRLWPERPEEKTEEPEERKEVEPPLKPLLPPDYGDSYVIPNYDDLDYYFPHPPPQKPDVGQEVDEEKEEMKKPKKEGSSPKEDTEDKWTVEKNKDHKGPRKGEELEEEWAPVEK | – | – | – | – | – | promoted an increase | promoted an increase | stimulated Smad3 phosphorylation | ≤ 5 µg/mL
